{
  "source": "patent US20210395344A1",
  "about": "(TWIST BIOSCIENCE, published 2021)",
  "data": [
    {"molecular_target": "T1, Acro COVID S1 (S1N-C82E8) (SARS-CoV-2, UniProt P0DTC2 16-685)", "T1 construct": "domain: S1 (subunit 1)", "assay": "phage ELISA", "units": {"specificity ELISA, fold over background": "fold over background"}, "values": [
      {"binder": "SARS-CoV-2 variant 1-10 (antibody, V domains shown) VH: EVQLLESGGGLVQPGGSLRLSCAASGFTFSSYDMSWVRQAPGKGLEWVSVISGSGGSTYYADSVKGRFTISRDNSKNTLYLQMNSLRAEDTAVYYCAKGPLVGWYFDLWGQGTLVTVSS VL: QSALTQPASVSGSPGQSITISCTGTSSNVGSYNLVSWYQQHPGKAPKLMIYEGTKRPSGVSNRFSGSKSGNTASLTISGLQAEDEADYYCCSYAGSSSFVVFGGGTKLTVL", "specificity ELISA, fold over background": 17.4},
      {"binder": "SARS-CoV-2 variant 1-30 (antibody, V domains shown) VH: EVQLLESGGGLVQPGGSLRLSCAASGFTFSSYAMTWVRQAPGKGLEWVSAISGSGGSTFYADSVKGRFTISRDNSKNTLYLQMNSLRAEDTAVYYCTRPPYGDYGDYWGQGTLVTVSS VL: QSALTQPASVSGSPGQSITISCTGTSRDVGSYNLVSWYQQHPGKAPKLMIYEGTKRPSGVSNRFSGSKSGNTASLTISGLQAEDEADYYCCSYAGSRTPVVFGGGTKLTVL", "specificity ELISA, fold over background": 16.8},
      {"binder": "SARS-CoV-2 variant 1-8 (antibody, V domains shown) VH: EVQLLESGGGLVQPGGSLRLSCAASGFTFSSYDMSWVRQAPGKGLEWVSVISGSGGSTYYADSVKGRFTISRDNSKNTLYLQMNSLRAEDTAVYYCAKGPLVGWYFDLWGQGTLVTVSS VL: QSALTQPASVSGSPGQSITISCTGTSNDVGSYNLVSWYQQHPGKAPKLMIYEGSKRPSGVSNRFSGSKSGNTASLTISGLQAEDEADYYCCSYAGSRYVVFGGGTKLTVL", "specificity ELISA, fold over background": 12},
      {"binder": "SARS-CoV-2 variant 1-27 (antibody, V domains shown) VH: EVQLLESGGGLVQPGGSLRLSCAASGFTFSSYAMTWVRQAPGKGLEWVSAISGSGGGTYYADSVKGRFTISRDNSKNTLYLQMNSLRAEDTAVYYCASSSSWQFDYWGQGTLVTVSS VL: QSALTQPASVSGSPGQSITISCTGTSSYVGHYNLVSWYQQHPGKAPKLMIYEGSRRPSGVSNRFSGSKSGNTASLTISGLQAEDEADYYCCSYAGSYTHYVFGGGTKLTVL", "specificity ELISA, fold over background": 1.5},
      {"binder": "SARS-CoV-2 variant 1-2 (antibody, V domains shown) VH: EVQLLESGGGLVQPGGSLRLSCAASGFTFSSQAMSWVRQAPGKGLEWVSAISGSGGGTYYADSVKGRFTISRDNSKNTLYLQMNSLRAEDTAVYYCAKDRRFGEFDPWGQGTLVTVSS VL: QSALTQPASVSGSPGQSITISCTGTSSGVGSYNLVSWYQQHPGKAPKLMIYEGIKRPSGVSNRFSGSKSGNTASLTISGLQAEDEADYYCCSYAGSSSFVVFGGGTKLTVL", "specificity ELISA, fold over background": 1.8},
      {"binder": "SARS-CoV-2 variant 1-31 (antibody, V domains shown) VH: EVQLLESGGGLVQPGGSLRLSCAASGFTFSSYAMNWVRQAPGKGLEWVSAISGSGGSTFYADSVKGRFTISRDNSKNTLYLQMNSLRAEDTAVYYCTRPPYGDYGDYWGQGTLVTVSS VL: QSALTQPASVSGSPGQSITISCTGTSSDVGKYNLVSWYQQHPGKAPKLMIYEGSQRPSGVSNRFSGSKSGNTASLTISGLQAEDEADYYCCSYAGSRTPVVFGGGTKLTVL", "specificity ELISA, fold over background": 30.4},
      {"binder": "SARS-CoV-2 variant 1-33 (antibody, V domains shown) VH: EVQLLESGGGLVQPGGSLRLSCAASGFTFSSYAMIWVRQAPGKGLEWVSAISGSGGSTFYADSVKGRFTISRDNSKNTLYLQMNSLRAEDTAVYYCTRPPYGDYGDYWGQGTLVTVSS VL: QSALTQPASVSGSPGQSITISCTGTSSDVGSYNLLSWYQQHPGKAPKLMIYEASKRPSGVSNRFSGSKSGNTASLTISGLQAEDEADYYCCSYAGSRTPVVFGGGTKLTVL", "specificity ELISA, fold over background": 7.1},
      {"binder": "SARS-CoV-2 variant 1-4 (antibody, V domains shown) VH: EVQLLESGGGLVQPGGSLRLSCAASGFTFSSQAMSWVRQAPGKGLEWVSAISGSGGGTYYADSVKGRFTISRDNSKNTLYLQMNSLRAEDTAVYYCAKDRRFGEFDPWGQGTLVTVSS VL: QSALTQPASVSGSPGQSITISCTGTSSDVGTYNLVSWYQQHPGKAPKLMIYEGSQRPSGVSNRFSGSKSGNTASLTISGLQAEDEADYYCCSYAGSSSFVVFGGGTKLTVL", "specificity ELISA, fold over background": 1},
      {"binder": "SARS-CoV-2 variant 1-41 (antibody, V domains shown) VH: EVQLLESGGGLVQPGGSLRLSCAASGFTFSSYDMSWVRQAPGKGLEWVSVISGSGGSTYYADSVKGRFTISRDNSKNTLYLQMNSLRAEDTAVYYCAKGPLVGWYFDLWGQGTLVTVSS VL: QSALTQPASVSGSPGQSITISCTGTSSDIGSYNLVSWYQQHPGKAPKLMIYEGTKRPSGVSNRFSGSKSGNTASLTISGLQAEDEADYYCCSYAGSRTYVFGGGTKLTVL", "specificity ELISA, fold over background": 4.5},
      {"binder": "SARS-CoV-2 variant 1-3 (antibody, V domains shown) VH: EVQLLESGGGLVQPGGSLRLSCAASGFTFSSQAMSWVRQAPGKGLEWVSAISGSGGGTYYADSVKGRFTISRDNSKNTLYLQMNSLRAEDTAVYYCAKDRRFGEFDPWGQGTLVTVSS VL: QSALTQPASVSGSPGQSITISCTGISSDVGSYNLVSWYQQHPGKAPKLMIYEGTKRPSGVSNRFSGSKSGNTASLTISGLQAEDEADYYCCSYAGSSSFVVFGGGTKLTVL", "specificity ELISA, fold over background": 1.6},
      {"binder": "SARS-CoV-2 variant 1-5 (antibody, V domains shown) VH: EVQLLESGGGLVQPGGSLRLSCAASGFTFSSQAMSWVRQAPGKGLEWVSAISGSGGGTYYADSVKGRFTISRDNSKNTLYLQMNSLRAEDTAVYYCAKDRRFGEFDPWGQGTLVTVSS VL: QSALTQPASVSGSPGQSITISCTGTSSGVGSYNLVSWYQQHPGKAPKLMIYEASKRPSGVSNRFSGSKSGNTASLTISGLQAEDEADYYCCSYAGSYTFAVFGGGTKLTVL", "specificity ELISA, fold over background": 1.5},
      {"binder": "SARS-CoV-2 variant 1-9 (antibody, V domains shown) VH: EVQLLESGGGLVQPGGSLRLSCAASGFTFSSYDMSWVRQAPGKGLEWVSVISGSGGSTYYADSVKGRFTISRDNSKNTLYLQMNSLRAEDTAVYYCAKGPLVGWYFDLWGQGTLVTVSS VL: QSALTQPASVSGSPGQSITISCTGTSSDVGDYNLVSWYQQHPGKAPKLMIYEGSNRPSGVSNRFSGSKSGNTASLTISGLQAEDEADYYCCSYAGSSSFVVFGGGTKLTVL", "specificity ELISA, fold over background": 10.7},
      {"binder": "SARS-CoV-2 variant 1-7 (antibody, V domains shown) VH: EVQLLESGGGLVQPGGSLRLSCAASGFTFSSYDMSWVRQAPGKGLEWVSVISGSGGSTYYADSVKGRFTISRDNSKNTLYLQMNSLRAEDTAVYYCAKGPLVGWYFDLWGQGTLVTVSS VL: QSALTQPASVSGSPGQSITISCTGTSSDFGSYNLVSWYQQHPGKAPKLMIYEGNKRPSGVSNRFSGSKSGNTASLTISGLQAEDEADYYCCSYAGSSTFVVFGGGTKLTVL", "specificity ELISA, fold over background": 6.8},
      {"binder": "SARS-CoV-2 variant 1-28 (antibody, V domains shown) VH: EVQLLESGGGLVQPGGSLRLSCAASGFTFSSYGMSWVRQAPGKGLEWVSAISGSGGGTYYADSVKGRFTISRDNSKNTLYLQMNSLRAEDTAVYYCASSSSWQFDYWGQGTLVTVSS VL: QSALTQPASVSGSPGQSITISCTGTSSGVGSYNLVSWYQQHPGKAPKLMIYEGSQRPSGVSNRFSGSKSGNTASLTISGLQAEDEADYYCCSYAGSSTHYVFGGGTKLTVL", "specificity ELISA, fold over background": 1},
      {"binder": "SARS-CoV-2 variant 1-38 (antibody, V domains shown) VH: EVQLLESGGGLVQPGGSLRLSCAASGITFSSYAMSWVRQAPGKGLEWVSGISGSGGSTYYADSVKGRFTISRDNSKNTLYLQMNSLRAEDTAVYYCAKHGSGTIFGVVIAKYYFDYWGQGTLVTVSS VL: QSALTQPASVSGSPGQSITISCTGTSSDIGSYNLVSWYQQHPGKAPKLMIYEGTKRPSGVSNRFSGSKSGNTASLTISGLQAEDEADYYCCSYAGSRTYVFGGGTKLTVL", "specificity ELISA, fold over background": 1.1},
      {"binder": "SARS-CoV-2 variant 1-42 (antibody, V domains shown) VH: EVQLLESGGGLVQPGGSLRLSCAASGVTFSSYAMSWVRQAPGKGLEWVSAITGSGGSTYYADSVKGRFTISRDNSKNTLYLQMNSLRAEDTAVYYCAKHGSGTIFGVVIAKYYFDYWGQGTLVTVSS VL: QSALTQPASVSGSPGQSITISCTGTSSDVGRYNLVSWYQQHPGKAPKLMIYEGGKRPSGVSNRFSGSKSGNTASLTISGLQAEDEADYYCCSYASSSTLVFGGGTKLTVL", "specificity ELISA, fold over background": 22.7},
      {"binder": "SARS-CoV-2 variant 1-22 (antibody, V domains shown) VH: EVQLLESGGGLVQPGGSLRLSCAASGFTFSSYAMNWVRQAPGKGLEWVSIISGSGGSTYYADSVKGRFTISRDNSKNTLYLQMNSLRAEDTAVYYCAREGYRDYLWYFDLWGQGTLVTVSS VL: QSALTQPASVSGSPGQSITISCTGTSTDVGSYNLVSWYQQHPGKAPKLMIYEGSQRPSGVSNRFSGSKSGNTASLTISGLQAEDEADYYCCSYAGSSTVFGGGTKLTVL", "specificity ELISA, fold over background": 32.7},
      {"binder": "SARS-CoV-2 variant 1-21 (antibody, V domains shown) VH: EVQLLESGGGLVQPGGSLRLSCAASGFTFSSYTMSWVRQAPGKGLEWVSIISGSGGSTYYADSVKGRFTISRDNSKNTLYLQMNSLRAEDTAVYYCAREGYRDYLWYFDLWGQGTLVTVSS VL: QSALTQPASVSGSPGQSITISCTGTSSDVGSNNLVSWYQQHPGKAPKLMIYEGNKRPSGVSNRFSGSKSGNTASLTISGLQAEDEADYYCCSYAGSVVFGGGTKLTVL", "specificity ELISA, fold over background": 19.5},
      {"binder": "SARS-CoV-2 variant 1-23 (antibody, V domains shown) VH: EVQLLESGGGLVQPGGSLRLSCAASGFTFSSYAISWVRQAPGKGLEWVSIISGSGGSTYYADSVKGRFTISRDNSKNTLYLQMNSLRAEDTAVYYCAREGYRDYLWYFDLWGQGTLVTVSS VL: QSALTQPASVSGSPGQSITISCTGTSNDVGSYNLVSWYQQHPGKAPKLMIYEGNKRPSGVSNRFSGSKSGNTASLTISGLQAEDEADYYCCSYAGSYTVFGGGTKLTVL", "specificity ELISA, fold over background": 5.1},
      {"binder": "SARS-CoV-2 variant 1-24 (antibody, V domains shown) VH: EVQLLESGGGLVQPGGSLRLSCAASGFTFSSYAMNWVRQAPGKGLEWVSIISGSGGSTYYADSVKGRFTISRDNSKNTLYLQMNSLRAEDTAVYYCAREGYRDYLWYFDLWGQGTLVTVSS VL: QSALTQPASVSGSPGQSITISCTGTSSDVGYYNLVSWYQQHPGKAPKLMIYEGNKRPSGVSNRFSGSKSGNTASLTISGLQAEDEADYYCCSYAGGSVVFGGGTKLTVL", "specificity ELISA, fold over background": 12.9},
      {"binder": "SARS-CoV-2 variant 1-32 (antibody, V domains shown) VH: EVQLLESGGGLVQPGGSLRLSCAASGFTFSSYAMYWVRQAPGKGLEWVSAISGSGGSTFYADSVKGRFTISRDNSKNTLYLQMNSLRAEDTAVYYCTRPPYGDYGDYWGQGTLVTVSS VL: QSALTQPASVSGSPGQSITISCTGTSSDVGGYNLVSWYQQHPGKAPKLMIYEGNKRPSGVSNRFSGSKSGNTASLTISGLQAEDEADYYCCSYAGSSTFPVVFGGGTKLTVL", "specificity ELISA, fold over background": 11.5}
    ]}
  ]
}
